Data on one molecule can be found in patent publication US20230106715A1 (BIOSION, published 2023).

For orientation: EC50 means the midpoint of the concentration-response curve. Broadly, the IC50 is the concentration that gives 50% inhibition. A lower IC50 goes with higher potency.

In test [1] the target is T1, recombinant human Siglec15-his protein (human, UniProt Q6ZMC9 20-263).
T1 construct: In house made; Biotin-labeled in the capture ELISA
T1 sequence: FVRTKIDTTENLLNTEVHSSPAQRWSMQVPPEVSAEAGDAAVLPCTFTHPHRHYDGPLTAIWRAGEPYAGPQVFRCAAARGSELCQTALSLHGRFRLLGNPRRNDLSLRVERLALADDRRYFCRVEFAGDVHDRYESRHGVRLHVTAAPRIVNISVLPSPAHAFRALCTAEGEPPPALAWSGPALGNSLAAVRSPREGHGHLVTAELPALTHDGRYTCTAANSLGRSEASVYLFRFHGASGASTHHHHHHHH
Put plainly: capture ELISA, captured antibody, biotin-labeled human Siglec15-his in solution. The procedure: Briefly, 96-well plates were coated with 100 μl of 2 μg/ml AffiniPure Goat Anti-Human IgG F(ab′)₂ fragment specific (Jackson Immuno Research, Cat #109-005-097) in PBS for 2 hours at 37° C. Plates were washed once with wash buffer (PBS+0.05% v/v Tween-20, PBST) and then blocked with 200 μl blocking buffer (5% w/v non-fatty milk in PBST) overnight at 4° C. Plates were washed 4 times and respectively incubated with 100 μl serially diluted anti-Siglec15 antibodies of the disclosure, the benchmark and hIgG (human immunoglobulin (pH4) for intravenous injection, Hualan Biological Engineering Inc.), 5-fold dilution in 2.5% w/v non-fatty milk in PBST starting at 66.7 nM, for 40 minutes at 37° C., and then washed 4 times again. […] The reaction was stopped in 4 minutes at room temperature with 50 μl/well 1M H₂SO₄, and the absorbance of each well was read on a microplate reader using dual wavelength mode with 450 nm for TMB and 630 nm as the reference wavelength, then the OD (450-630) values were plotted against antibody concentration. Data was analyzed using Graphpad Prism software and EC₅₀ values were reported.
For orientation: ELISA stands for enzyme-linked immunosorbent assay.

Test [2] concerns the target T2, human Siglec15 on human-siglec15-2D3-1E1 cells (human, UniProt Q6ZMC9 20-328).
T2 construct: whole, on cells; Transfected HEK-293 cells; also called cell surface human Siglec15
T2 sequence (looked up): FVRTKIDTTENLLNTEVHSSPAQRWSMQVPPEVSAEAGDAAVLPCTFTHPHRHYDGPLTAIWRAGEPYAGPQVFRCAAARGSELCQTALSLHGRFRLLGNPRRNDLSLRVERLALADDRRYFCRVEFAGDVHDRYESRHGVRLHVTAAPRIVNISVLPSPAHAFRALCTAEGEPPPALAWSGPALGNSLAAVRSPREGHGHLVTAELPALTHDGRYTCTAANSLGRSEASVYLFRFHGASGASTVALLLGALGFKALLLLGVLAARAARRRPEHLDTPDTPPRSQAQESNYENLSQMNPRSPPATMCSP
Put plainly: cell based binding FACS on human-siglec15-2D3-1E1 cells. The procedure: (§1) The binding activities of the anti-Siglec15 antibodies to cell surface Siglec15 were tested by flow cytometry (FACS), using in-house prepared human-siglec15-2D3-1E1 cells expressing human Siglec15 (amino acid residues Met1-Pro328 of uniprot #Q6ZMC9) on cell membranes. The human-siglec15-2D3-1E1 cells were prepared by transfecting HEK-293 cells (ATCC #CRL-1573) with pCMV-T-P plasmids inserted with human Siglec15 coding sequence between EcoRI and XbaI sites, following the instruction of lipofectamine 3000 transfection reagent (Thermo Fisher). The human-siglec15-2D3-1E1 cells were harvested from cell culture flasks, washed twice and re-suspended in phosphate buffered saline (PBS) containing 2% v/v Fetal Bovine Serum (FACS buffer). 2×10⁵ cells per well in 96 well-plates were incubated in 100 μL serially diluted anti-Siglec15 antibodies or controls (starting at 66.67 nM, 5-fold serial dilution) in FACS buffer for 40 minutes on ice. […] Following a 40-minute incubation at 4° C. in dark, cells were washed three times and re-suspended in FACS buffer. Fluorescence was measured using a Becton Dickinson FACS Canto II-HTS equipment. Data was analyzed using Graphpad Prism software and EC₅₀ values were reported.

For test [3], the target named is T3, human Siglec15-Fc protein (human).
T3 construct: In house made; also called recombinant human Siglec15 protein with human IgG1 Fc at the C-terminus
Nature of the test: competitive ELISA: biotin-labeled human Siglec15-Fc in solution, competitor coated benchmark. The procedure:
The abilities of the anti-Siglec15 antibodies of the disclosure to block benchmark-human Siglec15 binding were measured in a competitive ELISA assay. Briefly, the benchmark was coated on 96-well micro plates at 2 μg/mL in PBS, 100 μl per well, and incubated for 2 hours at 37° C. Then plates were washed once with wash buffer, and blocked with 5% w/v non-fatty milk in PBST overnight at 4° C. The next day, the anti-Siglec15 antibodies of the disclosure or controls were diluted with biotin labeled human Siglec15-Fc protein (prepared in-house with SEQ ID NO: 19, 37 ng/ml in PBST with 2.5% w/v non-fatty milk), starting at 80 nM with a 4-fold serial dilution, and incubated at room temperature for 40 minutes. After plate washing 4 times, the antibody/Siglec15-Fc mixtures were added to benchmark coated plates, 100 μl per well. After incubation at 37° C. for 40 minutes, plates were washed 4 times again using wash buffer. Then the plates were added and incubated with 100 μl/well streptavidin conjugated HRP for 40 minutes at 37° C. […] Finally, TMB was added and the reaction was stopped using 1M H₂SO₄, and the absorbance of each well was read on a microplate reader using dual wavelength mode with 450 nm for TMB and 630 nm as the reference wavelength, then the OD (450-630) values were plotted against antibody concentration. Data was analyzed using Graphpad Prism software and IC₅₀ values were reported.

For test [4], the target named is T2, human Siglec15 on …. Put plainly: cell based binding FACS on human-siglec15-2D3-1E1 cells. The method, then:
as §1
The source holds these as a separate data set.

Like-named read-outs stand apart in the source and are kept apart here.

B1: anti-Siglec15 benchmark (ch5G12) (antibody, human IgG1, kappa, V domains shown)
VH: QVQLQQPGAELVKPGASVKMSCKASGYTFTSYWITWVIQRPGQGLEWIGDIYCGSDTMHYNEKFKNKATLTVDTSSSTAYMQLSSLTSEDSAVYYCARWWDYGSSYDYFDYWGQGTTLTVSS
VL: DIKMTQSPSSMYASLGERVTITCKASQDINSYLSWFQQKPGKSPKTLIYRANRLVDGVPSRFSGSGSGQDYSLTISSLEYEDMGIYYCLQYDEFPYTFGGGTKLEIKR
notes: ch5G12 (US 20190202912A1); also called BM; Siglec15-ch5G9
In the case of B1, the EC50 in test [1] came to 2.11 nM; in test [2] it was 15.5 nM; in test [4] it was 19.8 nM. The 50% inhibitory concentration (IC50) in test [3] worked out at 0.338 nM.
